B1: TPR t1 (parent)
chain: GACCAAUCUGCCCUCAGAGCUCGAGAACAUCUUCGGAUGCAGAGGAGGCAGGCUUCGGUGGCGCGAUAGCGCCAACGUCCUCAACCUCCAAUGCAUCCCACCACAUGAUGAUGCCUGAAGAGCCUUGGUUUUUUG

Variants of: B1
Assay: polymerase ribozyme fitness, log enrichment relative to wild type (log ratio); higher = more active; in vitro selection for triplet polymerase activity
Outline: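 To select mutant libraries of each subunit of a heterodimeric triplet polymerase ribozyme, built by PCR and transcribed, each was annealed with a biotinylated primer, partner subunit and triplets, then incubated frozen at −7 °C. Extended constructs were gel-excised, captured on streptavidin beads and amplified by RT-PCR, in one round carried out in triplicate. Illumina sequencing of input and output libraries kept genotypes with ≥10 input reads and ≥1 read per output. Fitness is the base-2 logarithm of genotype enrichment relative to wild-type enrichment, from inverse-variance-weighted replicate averages.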

Going from GACCGAUCUGCUCUCAGAGCUCGAGAACAUCUUCGGAUUCAGAGGAGGCAGGCUUCGGUGGCGCGAUAGCGCCAACGUCCUCAACCUCCAAUGCAUCCCACCACAUGAUGAUGCCUGAAGAGCCUUGGUUUUUUG to GACCAAUCUGCCCUCAGAGCUCGAGAACAUCUUCGGAUGCAGAGGAGGCAGGUUUCGGUGGCGCGAUAGCGCCAACGUCCUCAACCUCCAAUGCAUCCCACCACAUGUUGAUGCCUGAAGAGCCUUGGUUUUUUG, the “polymerase ribozyme fitness (log ratio)” value falls from -0.29 to -6.86.

GACCAAUCUGCCCUCAGAGCUCGAGAACAUCUUCGGAUGCAGAGGAGGCAGGCUUCGGUGGCGCGAUAGCGCCAACGUCCUCAACCUCCAAUGCAUCCCACCACAUGAUGAUGCUUGAAGAUCCUUGGUUUUUUG and GAACCAUCUGCCGUCAGAGCUCGAGAACAUCUUCGAAUGCAGAGGAGGCAGGCUUCGGUGGCGCGAUAGCGCCAACGUUCUCAUCCUCCAAUGCAUCCCACCACAUGAUGAUGCCUGAAGAGCCUUGGUUUUUUG are within 0.2 log units of each other in “polymerase ribozyme fitness (log ratio)” value: -1.31 for the first, -1.28 for the second.

Going from GACCAAACUGCCCUCAUAGCUCGAGAACAUCUUCGGAUGCAGAGGAGGCAGGCUUCGGUGGCGCGAUAGCGCCAACGUCCUCAACCUCCAAUGCAUCCCACCACAUGAUGAUGCCUGAAGAGCCUUGGUUUUUUG to GACCAAUCUGCCCUCAGAGCUCGUGAACAUCUUCGGAUGCAGAGGAGGCAGGCUUCGGUGGCGCGAUAGCGGCAACGUCCUCAACCUCCAAUGCCUCCCACCACAUGAUUAUGCCUGAAGAGCCUUGGUUUUUUG, the “polymerase ribozyme fitness (log ratio)” value falls from -1.25 to -7.4.

First: GACCAAGCUGCCCUCAGAGCUCGAGAACAUCUUCGGAUGCAGAGGAGGCAGGGUUCGGUGGCGCGAUAGCGCCAACGUCCUCAACCUCCAAUGCAUCCCACCACAUGAUGAUGCCUGAAGAGCCUUGGUUUUUUG
Second: GACCAAUCUGCCCUCAGAGCUCGAGAACAUCUUCGGAUGCAGAGGAGGCAGCCUUCGGUGGCGUGAUAGCGCCAACGUCCUCAACCUCCAAUGCAUCCCACCACAUGAUGAUGCCUGAAGAGUCUUGGUUUUUUG
The “polymerase ribozyme fitness (log ratio)” value of the first is lower: -0.551 for the first, -0.169 for the second.

First: GACCAAUCUGCCCUCAGAGCUCGAGAACAUCUUCGGAUGCAGAGGAGGCAGUCUUCGGUGGCACGAUAGCGCCAACGUCCUCAACCUCCAAUACAUCCCACCACAUGAUGAUGCCUGAAGAGCCUUGGUUUUUUG
Second: GACCAAUCUGCCCUCAGAGCUCGAGAACAUCCUCGGAUGCAGAGGAGGCAGGCUUCGGUGGCGCGAUAGCGCCAACGUCCUCAACCUCCAAUGCAUCCCACCACAGGAUGAGGCCUGAAGAGCCUUGGUUUUUUG
The “polymerase ribozyme fitness (log ratio)” value of the first is lower: -1.45 for the first, -0.955 for the second.

First: GACCAAUCUGCCCUCAGAGCUCGAGAACAUCUUCGGAUGCAGAGGAGGCAGGCUUCGGUGGCGCGAUAGCGCCAACGUGCUCAACCUCCAAUGCAUCCCACCACAUGAUGAUGCCUGAAGAGCCUUAGUUUUUUG
Second: GACCAACCUGCCCGCAGAGCUCGAGAACAUCUUCGGAUGCAGAGGAGGCAGGCUUCGGUGGCGCGAUAGCGCCCACGUCCUCAACCUCCAAUGCAUCCCACCACAUGAUGAUGCCUGAAGAGCCUUGGUUUUUUG
The “polymerase ribozyme fitness (log ratio)” value of the first is lower: -2.38 for the first, -1.29 for the second.

First: GACCAAUCUGCCCUCAGAGCUUGAGAACAUCUUCGGAUGCAGUGGAGGCAGGCUUCGGUGGCGCGAUAGCGCCAACGUCCUCAACUUCCAAUGCAUCCCACCACAUGAUGAUGCCUGAAGAGCCUUGGUUUUUUG
Second: GACCAGUCUGCCCUCAGAGCUCGAGAACAUCUUCGGAUGCAGAGGAGGCAGGCUUCGGUGGCGCGAUAGCGCAAACGUCCUCAACCUCCAAUGCAUCCCACCACAUGAUGAAGCCUGAAUAGCCUUGGUGUUUUG
The “polymerase ribozyme fitness (log ratio)” value of the first is lower: -5.15 for the first, 0.876 for the second.

First: GACCAAUAUGCCCUCAGAGCUCGAGAACAUCUUCGGAUGCAGAGGAGGCAGGCUUCGGUGGCGCGAUAGCGCCAACGUCCUCAACCUCCUAUGCAUCCCACCACAUGAUGAUGCCUGAAGAGCCUUGGUUUUUUG
Second: GACCAAUCUGCCCUCAGAGCUCGAGAACAUCUUCGGAUGCAGAGGAGGCAGGCUUCGGUGGCGCGAUAGCGCCAACGUCCUCAACCUCCAAUACAUCCCACCACAUGAUCAUGCCUGAAGAGCCUUGGUUUUUUG
The “polymerase ribozyme fitness (log ratio)” value of the first is higher: -0.513 for the first, -5.32 for the second.

Compared with GACCAAUCUGCCCUCAGAGCUCGAGAACAUCUUCGGAUGCAGAGGAGGCAGGCUUCGGUGGCGCGAUAGCGCCAACGUCCUCAACCUCCAAUGCAUCCCACCAGUUGAUGCUGCCUGAAGAACCUUGGUUUUUUG, GACCUAUUUGCCCUCAGAGCUCGAGAACAUCUUCGGAUGCAGAGGAGGCAGGCUUCGGUGGCGCGAUAGCGCCAACGUCCUCAACCUCCAAUGCAUCCCAGCACAUGAUGAUGCCUGAAGAGCCUUGGUUUUUUG is higher in “polymerase ribozyme fitness (log ratio)” value: -7.2 for the first, -1.15 for the second.

Compared with GACCAAUCUGCCCUCAGAGCUCGAGAACAUCUUCGGAUGCCGAGGAGGCAGGCUUCGGUGGCGCGAUAGCGCCAACGUCCUCUACCUCCAAUGCAUCCCACCACAUGAUGAUGCCUGAAGAGCCUUGGUUUUUUG, GACCAAUCUGCCCUCAGAGCUCGAGAACAUCUUCGGAUGCAGAGGAGGCAGGCUUCGGUGGCGCGAUAGCGCAAACGUCCUCAACCUCCUAUGCAUCCCACCACAUGAUGAUGCCUGAAGAGCCUUGGUUUUUUG is lower in “polymerase ribozyme fitness (log ratio)” value: -1.29 for the first, -3.12 for the second.

In the case of GACCAAUUUGCCCUCAGAGCUCGAGAUCAUCUUUGGAUGCAGAGGAGUCAGGCUUCGGUAGCGCGAUAGCGCCAACGUCCUCAACCUCCAAUGCAUCUCACCACAUGAUGACGCCUUAAGAGCCUUGGUUUUUUG, the “polymerase ribozyme fitness (log ratio)” value is reported as -7.25.

— the RNAGym collection of RNA variant scans (doi:10.1073/pnas.2313332121)
